# Measured values taken from publication PMC5021521, “Coordinated recruitment of Spir actin nucleators and myosin V motors to Rab11 vesicle membranes” (eLife, 2016).
# How the values were obtained:
# [1] = tested on: GST-Rab11a-Q70L; assay: GST-pulldown from HEK293 lysates; assay type: binding; settings: N = 2; for pulldown by GST-Rab11a-Q70L in words, with Q1753R mutant MyoVa: HEK293 lysates with GFP-MyoVa-Q1753R in place of GFP-MyoVa-FL
# Protocol: HEK293 cells were co-transfected with expression vectors encoding Myc-Spir-2-FL, mStrawberry-FMN2-FH2-FSI, eGFP-MyoVa-D-FL and eGFP-MyoVa-D-Q1753R, respectively. 24 hr post transfection, cells were lysed in lysis buffer (25 mM Tris-HCl pH 7.4, 150 mM NaCl, 5 mM MgCl2, 10% (v/v) glycerol, 0.1% (v/v) Nonidet P-40, 1 mM PMSF, protease inhibitor cocktail) and centrifuged at 20,000 x g, 4°C, 20 min to remove insoluble debris. For GST-pulldown assays 65 µg GST-Rab11a-Q70L protein (25 µg GST control) was coupled to GSH-Sepharose 4B beads (1:1 suspension) for 1 hr, 4°C on a rotating wheel. Beads were washed twice with pulldown buffer (25 mM Tris-HCl pH 7.4, 150 mM NaCl, 5 mM MgCl2, 10% (v/v) glycerol, 0.1% (v/v) Nonidet P-40) and subsequently incubated with the cell lysates for 2 hr at 4°C on a rotating wheel. Beads were washed four times with pulldown buffer and bound proteins were eluted with 1x Laemmli buffer and denatured at 95°C for 10 min, then were analyzed by immunoblotting.
# [2] = tested on: GFP-MyoVb-GTD; assay: Co-immunoprecipitation from HEK293 cells; assay type: binding, Homo sapiens; settings: anti-Myc co-IP, HEK293, immunoblot
# Protocol: HEK293 cells were transfected with expression vectors encoding Myc-tagged Spir proteins and GFP-tagged myosin Va and myosin Vb fragments. 48 hr post transfection, cells were lysed in lysis buffer (25 mM Tris-HCl pH 7.4, 150 mM NaCl, 5 mM MgCl2, 10% (v/v) glycerol, 0.1% (v/v) Nonidet P-40, 1 mM Phenylmethylsulfonylfluorid (PMSF; Sigma-Aldrich), protease inhibitor cocktail (complete mini, EDTA-free; Roche, Penzberg, Germany)) and centrifuged at 20,000 x g, 4°C, 20 min to remove insoluble debris. The clarified supernatant was incubated with 4 µg anti-c-Myc antibody (9E10, mouse monoclonal; Santa Cruz Biotechnology; RRID: AB_627268) for 1 hr on ice. Subsequently, 40 µl Protein G-Agarose beads (1:1 suspension; Roche) were added and incubated for 2 hr at 4°C on a rotating wheel. Beads were washed with pulldown buffer (25 mM Tris-HCl pH 7.4, 150 mM NaCl, 5 mM MgCl2, 10% (v/v) glycerol, 0.1% (v/v) Nonidet P-40). Bound proteins were eluted with 1x Laemmli buffer and denatured for 10 min at 95°C, then analyzed by immunoblotting.
# [3] = tested on: mStrawberry-Rab11a; assay: Colocalization with Rab11 in HeLa cells, Pearson's correlation coefficient; assay type: cell-based, Mus musculus
# Protocol: (§1) HeLa cells were seeded on microscope cover glasses and transfected with Myc-epitope-tagged Spir-2 proteins and fluorescently-tagged MyoV and Rab11 proteins as described above. Cells were fixed with paraformaldehyde (3.7% in 1x PBS) for 20 min at 4°C and subsequently permeabilized using 0.2% Triton X-100 (in 1x PBS) for 3.5 min, room temperature. Cells were incubated with anti-c-Myc antibody (9E10, mouse monoclonal, 2 µg/ml, Santa Cruz Biotechnology; RRID: AB_627268) for 1 hr at room temperature and conjugated anti-mouse secondary antibodies (Cy5; from donkey, 3.25 µg/ml, Dianova (RRID: AB_2340820) and TRITC; from donkey, 3.125 µg/ml, Dianova (RRID: AB_2340767)) for 1 hr at room temperature avoiding exposure to light. Finally, cells were mounted on microscope slides with Mowiol and analyzed with a Leica AF6000LX fluorescence microscope, equipped with a Leica HCX PL APO 63x/1.3 GLYC objective and a Leica DFC350 FX digital camera (1392 × 1040 pixels, 6.45 × 6.45 µm pixel size). 3D stacks were recorded and processed with the Leica deconvolution software module. In case of the MyoVa autoregulation/activation experiments, we quantified the MyoVa expression levels. […] In order to clearly distinguish between vesicular and cytoplasmic MyoVa localization, we imaged either high or low expressing cells and determined the sum of pixel gray values per cell as a measure for the MyoVa expression levels. Based on that, we only used cells for the autoregulation analysis having a sum of pixel gray values less than 20 × 10^6 for the expression of GFP-MyoVa-D-FL. Images were recorded using the Leica LASX software and further processed with Adobe Photoshop and subsequently assembled with Adobe Illustrator.
# The extent of colocalization of Rab11, Spir-2 and MyoVa was analyzed using the ImageJ (V2.0.0) plug-in Coloc 2. Here, the colocalization rate is indicated by the Pearson’s Correlation Coefficient (PCC) as a statistical measure to unravel a linear correlation between the intensity of different fluorescent signals. […] To take the noise of each image into account and to gain an objective evaluation of PCC significance, a Costes significance test was performed. Therefore, the pixels in one image were scrambled randomly and the correlation with the other (unscrambled) image was measured. […] Statistical data analysis was performed using SPSS 22 (IBM, Armonk, NY, USA).
# [4] = tested on: HeLa cells; assay: Subcellular localization by fluorescence microscopy; assay type: cell-based
# Protocol: as §1
molecule,measurement,setting,value
"Straw-FMN2-FH2-FSI: mStrawberry-tagged C-terminal formin-2, aa 1135 - 1578",pulldown by GST-Rab11a-Q70L in words,"[1]; HEK293 lysates over-expressing Myc-Spir-2, Straw-FMN2-FH2-FSI and GFP-MyoVa-FL",able to pull down
same,"pulldown by GST-Rab11a-Q70L in words, with Q1753R mutant MyoVa",[1],Only faint
"GFP-MyoVa-Q1753R: eGFP-tagged full-length MyoVa with Q1753R mutation, which disrupts interaction with Rab11","pulldown by GST-Rab11a-Q70L in words, with Q1753R mutant MyoVa",[1],but not the GFP-MyoVa-Q1753R mutant
"Spir-1: Myc-hs-Spir1 aa 2 - 757, full-length (protein) MANTVEADGSKDEGYEAADEGPEDEDGEKRSISAIRSYQDVMKICAAHLPTESEAPNHYQAVCRALFAETMELHTFLTKIKSAKENLKKIQEMEKGDESSTDLEDLKNADWARFWVQVMRDLRNGVKLKKVQQRQYNPLPIEYQLTPYEMLMDDIRCKRYTLRKVMVNGDVPPRLKKSAHEVILDFIRSRPPLNPVSARKLKPTPPRPRSLHERILEEIKAERKLRPVSPEEIRRSRLVRPLSMSHSFDLSDVTTPESPKNVGESSMVNGGLTSQTKENGLSAAQQGSAQRKRLLKAPTLAELDSSDSEEEKSLHKSTSSSSASPSLYEDPVLEAMCSRKKPPKFLPISSTPQPERRQPPQRRHSIEKETPTNVRQFLPPSRQSSRSLEEFCYPVECLALTVEEVMHIRQVLVKAELEKYQQYKDVYTALKKGKLCFCCRTRRFSFFTWSYTCQFCKRPVCSQCCKKMRLPSKPYSTLPIFSLGPSALQRGESCSRSEKPSTSHHRPLRSIARFSTKSRSVDKSDEELQFPKELMEDWSTMEVCVDCKKFISEIISSSRRSLVLANKRARLKRKTQSFYMSSAGPSEYCPSERTINEI",co-precipitation / interaction with MyoVb-GTD in words,[2],did interact with the GFP-MyoVb-GTD
"Myc-Spir2-SB-FYVE: Myc-hs-Spir2-SB-FYVE aa 438 - 714, lacks the MyoV binding motif (protein, left off: Myc epitope, end not stated, kept) DRSFSEHDLAQLRSEVASGLQSATHPPGGTEPPRPRAGSAHVWRPGSRDQGTCPASVSDPSHPLLSNRGSSGDRPEASMTPDAKHLWLEFSHPVESLALTVEEVMDVRRVLVKAEMEKFLQNKELFSSLKKGKICCCCRAKFPLFSWPPSCLFCKRAVCTSCSIKMKMPSKKFGHIPVYTLGFESPQRVSAAKTAPIQRRDIFQSLQGPQWQSVEEAFPHIYSHGCVLKDVCSECTSFVADVVRSSRKSVDVLNTTPRRSRQTQSLYIPNTRTLDFK",PCC,"[3]; GFP-MyoVa-CC-GTD + mStraw-Rab11 + Myc-Spir2-SB-FYVE (first block, r34), cell 1",0.63
same,PCC,"[3]; GFP-MyoVa-CC-GTD + mStraw-Rab11 + Myc-Spir2-SB-FYVE (first block, r34), cell 2",0.74
same,PCC,"[3]; GFP-MyoVa-CC-GTD + mStraw-Rab11 + Myc-Spir2-SB-FYVE (first block, r34), cell 3",0.59
same,PCC,"[3]; GFP-MyoVa-CC-GTD + mStraw-Rab11 + Myc-Spir2-SB-FYVE (first block, r34), cell 4",0.23
same,"Pearson's correlation coefficient (PCC), mean","[3]; GFP-MyoVa-CC-GTD + mStraw-Rab11 + Myc-Spir2-SB-FYVE (first block, r34), mean of 4 cells",0.5475
same,colocalization with Rab11 in words,"[3]; co-expression of Spir-2-SB-FYVE, MyoVa-CC-GTD and Rab11a, HeLa cells",significant reduction
"398 714: C-terminal Spir-2 deletion mutant (protein, left off: Myc epitope, end not stated, kept, C-terminal Spir-2 deletion mutant) GSAQRPRPRVLLKAPTLAEMEEMNTSEEEESPCGEVTLKRDRSFSEHDLAQLRSEVASGLQSATHPPGGTEPPRPRAGSAHVWRPGSRDQGTCPASVSDPSHPLLSNRGSSGDRPEASMTPDAKHLWLEFSHPVESLALTVEEVMDVRRVLVKAEMEKFLQNKELFSSLKKGKICCCCRAKFPLFSWPPSCLFCKRAVCTSCSIKMKMPSKKFGHIPVYTLGFESPQRVSAAKTAPIQRRDIFQSLQGPQWQSVEEAFPHIYSHGCVLKDVCSECTSFVADVVRSSRKSVDVLNTTPRRSRQTQSLYIPNTRTLDFK",co-precipitation / interaction with MyoVb-GTD in words,[2],show myosin V co-precipitation
"Myc-Spir-2-KIND-WH2: Myc-hs-Spir2-KIND-WH2 aa 2 - 410 (protein, left off: Myc epitope, end not stated, kept) ARAGSCGGAAAGAGRPEPWELSLEEVLKAYEQPLNEEQAWAVCFQGCRGLRGSPGRRLRDTGDLLLRGDGSVGAREPEAAEPATMVVPLASSEAQTVQSLGFAIYRALDWGLDESEERELSPQLERLIDLMANNDSEDSGCGAADEGYGGPEEEEEAEGVPRSVRTFAQAMRLCAARLTDPRGAQAHYQAVCRALFVETLELRAFLARVREAKEMLQKLREDEPHLETPRAELDSLGHTDWARLWVQLMRELRRGVKLKKVQEQEFNPLPTEFQLTPFEMLMQDIRARNYKLRKVMVDGDIPPRVKKDAHELILDFIRSRPPLKQVSERRLRPLPPKQRSLHEKILEEIKQERRLRPVRGEGWAARGFGSLPCILNACSGDAKSTSCINLSVTDAGGSAQRPRPRVLLK",subcellular localization in words,[4]; co-expression of eGFP-MyoVa-FL and N-terminal Spir-2 fragment,both cytosolic
same,subcellular localization in words,[4]; single expression,even cytoplasmic and nuclear localization
"1 423: N-terminal Spir-2 deletion mutant (protein, left off: Myc epitope, end not stated, kept, N-terminal Spir-2 deletion mutant) ARAGSCGGAAAGAGRPEPWELSLEEVLKAYEQPLNEEQAWAVCFQGCRGLRGSPGRRLRDTGDLLLRGDGSVGAREPEAAEPATMVVPLASSEAQTVQSLGFAIYRALDWGLDESEERELSPQLERLIDLMANNDSEDSGCGAADEGYGGPEEEEEAEGVPRSVRTFAQAMRLCAARLTDPRGAQAHYQAVCRALFVETLELRAFLARVREAKEMLQKLREDEPHLETPRAELDSLGHTDWARLWVQLMRELRRGVKLKKVQEQEFNPLPTEFQLTPFEMLMQDIRARNYKLRKVMVDGDIPPRVKKDAHELILDFIRSRPPLKQVSERRLRPLPPKQRSLHEKILEEIKQERRLRPVRGEGWAARGFGSLPCILNACSGDAKSTSCINLSVTDAGGSAQRPRPRVLLKAPTLAEMEEMNTS",co-precipitation / interaction with MyoVb-GTD in words,[2],show myosin V co-precipitation
